Assay: soluble on expression in E. coli; label from the status in PepcDB or PDB records

| Sequence | soluble on expression in E. coli |
| --- | --- |
| MGSDKIHHHHHHMETCRQEVTMDKVFIISQKAEQQADAIETGIALARVLEKEAEVFAYSYESFAGKEYYNPRLGAAAKVALMNQRSEEIAAKLKALKAEDVAVHSVWTKDLFEHACHHSIRHGFDLMVKAVHHKTHYLPMDWQLIRHVRIPLMMLCDNPLQRARSVLMAVDLGSDNPIKQKLNQCVIQQGRQLAEAMDCQLHLAYIIRVPKILRDMDLIDTRTLVKDAYHRYQPQLDEIDLHQEHVHFLAGDPDLCLYELSCRLKAAYLVMGARQRKGLMGMVIGNTAEAMLTRIRSNVLIIPADDQLLPA | not soluble |
| MGSDKIHHHHHHMETIERHFRCNEGSAADYAAQLREVGTVMLPAYVAFDAHELAHIDALQARLPEEPVTAGDAGDTHDIYVRRIMVDRAGERPQLVNRPHSEPILALLTDARRTRFFGDMFGANAEYFIRRCQINRMLKDSFIGLHLDAASNPDYEFSVVIQLGREFDGGEFVVHPEGRLPNVFAPTYGTVIVTSCMHRHEVRSVRANERTSLVYFYARHNGVNRRAN | not soluble |
| MGSDKIHHHHHHMETVYFKTLLAVVETGSFSRAAERLCITQSAVSQRIKLLEGRYGYTLIDRAGNFLVPTAAGELVIQKARVIIEHELALLGALKLLPAKTVISFCCSPCFGTVFLPALVRDFVLRNSEQIDFRCVLGSSQGAVRGLRDTDFNIIVIEHCTPLDLSPYDVISLPNDEIIFVSNPATGLDVPEPDLSQLLNLPVIMRKEGCSGTEQLAANLARFGKVLEDFRSVTGLDDPRLIVQTVKTEPYLAFVPKSLVLKELAEGSLRAHTVKGFSHARFRSLVTAPKRYSDPCRSNFIKAVMETVCHISAVSMPGDGPGSRWHKKRPSGRRAPLNSAVTNNAAI | not soluble |
| MGSDKIHHHHHHMEYEQLLQSELGELEIIREELQNKEYRGMIVKTAKDGTTIRTRLAKKTDKKTGYFVAFWEKDELGKNCPFDENDSADFLCIVVIDGDLNGLFVFPRQCLIEKGILTSEVGIGKMAARFYPSWCQDLNKTAEKTQAWQQVYFKNYSIRKEDH | not soluble |
| MGSDKIHHHHHHMEYTSLIFPGDKIDIFASGLSDNSTSYKSSFSDKLTDSMWEITMPVDSGRVVLFQLGTQFDFIIYTQNKTILKSSAIVRQRYRKENMYFLAIELINNLEKIQRRQFFRLPCTIDMDFYEVRYDDKAESELEFCKKMYKNHAINSKNMNTVKSVILDISGGGIRFSLSTPLEEGTYFMAQFSLALEECTQQFNIVCKVINCTQSLDYADRYFARSKFIFDRMTEREKIVRFVFEEERRIRRREME | not soluble |
| MGSDKIHHHHHHMFAKFVQRHGAARKAADKTIRAQAGALYAALKDPPGPPHAPASAEHREHQEQDAKEQTMYNDSKHGFDVAQTEYEAFMLEPHDWVPNNRKLPVVIYRRALMPASGDLAAAFEILFERNAWPPQWRDGIFDYHHFHATAHEILGVTDGSAQVIVGGPGGRVVTLCAGDALLLPAGTGHCLQSFARHFQVVAGYPEGQQWDIRREALTPDELASMEALPFPSLDPIDGKHGPLVEHWLHAA | not soluble |
| MGSDKIHHHHHHMFDPTLLHIINAHSRNPHYHKKFPIILFWSQKSGCTSLAKWFFYQIDLLQTALNYSPFIHNYEYDIYKNAPAYSLRLGIALREKQKETFKLVRNPYKRAVSSFVSLIAPPYIENPEWKPIRKFLYQDENSSKGLSFKQFLYYLLINGAQANSINPHFTQQYIADEEKYVTNYIYLENFNQDMKALEKRFELKTAPINEFSTSWHHQTPSMIYKGNFSESDITDPLFPRLPTFESFYDTECIQLVQTIFQNDFNTYKYSKEYPY | not soluble |
| MGSDKIHHHHHHMFKSTDNYIASNELTLAVNAAIALEKPLLIKGEPGTGKTQLAEELARSLNCKLYQWHIKSTTKAQQGLYEYDAVSRLRDSQLGDARVHDIGNYIVKGKLWQAFEEDQRSILLIDEIDKADIEFPNDLLQELDKMEFYVYETQQVIKAKQRPIIIITSNNEKELPDAFLRRCFFHYIKFPTKDEMAKIIDVHHPNVKQDLLQQALEVFFDLRDVNGIKKKPSTSELIDWLKLLISDDISQDTLLDKKSDIIPLFGALLKNEQDVSLIEKLAFMSRRNR | not soluble |
| MGSDKIHHHHHHMFLGEDYLLTNRAAVRLFNEVKDLPIVDPHNHLDAKDIVENKPWNDIWEVEGATDHYVWELMRRCGVSEEYITGSRSNKEKWLALAKVFPRFVGNPTYEWIHLDLWRRFNIKKVISEETAEEIWEETKKKLPEMTPQKLLRDMKVEILCTTDDPVSTLEHHRKAKEAVEGVTILPTWRPDRAMNVDKEGWREYVEKMGERYGEDTSTLDGFLNALWKSHEHFKEHGCVASDHALLEPSVYYVDENRARAVHEKAFSGEKLTQDEINDYKAFMMVQFGKMNQETNWVTQLHIGALRDYRDSLFKTLGPDSGGDISTNFLRIAEGLRYFLNEFDGKLKIVLYVLDPTHLPTISTIARAFPNVYVGAPWWFNDSPFGMEMHLKYLASVDLLYNLAGMVTDSRKLLSFGSRTEMFRRVLSNVVGEMVEKGQIPIKEARELVKHVSYDGPKALFFG | soluble |
| MGSDKIHHHHHHMFNLEEYTEKAQKVMMSIQDIMTRYRQNQLSSEHILLAILEEGNNVGVELLKELNVDINRLKDEVEVFIGKYGVRVPEGASVSQIFITPDARHVIEKAREEARRMGDSKIGTEHLILGMVLSPDSTAFRILSRYGVTPERVYEAIRKIRSTGKTDEAENVEALARFTVDLTQLAREKKLMPVVDREKEIRRVIQILSRRTKNNPVLIGDPGVGKTAVVEGLAQRIVEGKVPLFLRNVRVLKLDMGRLVAGTRFRGDFEERLKRLLDELKRKKGEVILFIDEVHTVVGAGAAEGALDAANIMKPELTTGEIQIIGATTVEEYRKYIEKDRALERRFQPVMVEEPTVEQTIEILKGLRKVFEEHHHVKITDDALEAAAKLSARYITNRFLPDKAVDLIDEAAAYVRLESSYPSEELLKLEEEIKNLEDKINDAVVKGEYEEAAKLKVELQKLKNEYEEKRKKQEKVEPVVDENVVAKIVEQWTGIPVSRIMESEREKLLKLEEFIHQRLVNQEEAVKIVARTIRRARVGIKNPRRPIGVFLFLGPTGVGKTELARTLADVLFGSEDAMIRLDMSEYMEKHSVARLIGAPPGYVGYEEGGQLTEAVRKRPYSVILLDEIEKAHPDVFNILLQVFEDGRLTDGKGNTVDFRNTIIIMTSNIGSEKILEMSENGVRIEIEKELRNTFKPEFLNRIDAIVYFKPLTMEEVKKIVEIMVRQLQEILKEKNISIELTERAKEYLAEAGYVPSLGARPLRRIIELELESMIADKILEGEIKEGDRVLVDADEYGLKIERR | not soluble |
| MGSDKIHHHHHHMFSKSLEALHHAKRYRKRELFDPLLKDYASNDYLGLSVKKDLLQNAFNKLQSFVSHSPKASMLVNGYHPLHAELEERLANLLGFESALLVGSGFLGNLALIDTLLVKNALLFMDAHYHASGIFSTKIKPNQVIFFSHNDIKDLKQKLFNAPKNKIKFIAIEGVYSMDASVAPYDFYAIIQEIPNAFLIVDEAHSFGTIGENLLGFLEYYRIKEKDKIIKLSTFSKALASYGACILAPLQTIEFLTNRAKSVIYTTALSLLDTALTLAHLEYFIVQKQELKNELSKHQQIIFETLGIRTLAGFFTLEFESNPALLNAHHFLKEKGFLVGAIRPPTVSKPLLRVSLSLKNSLEDTKELANTLLNYSKIQSSFKSG | not soluble |
| MGSDKIHHHHHHMFTKKSRNIYKAGSLCEFAKAFFIGGIDVENVVKHALLKEVEQLMEQYIGGLKEIFLDEKIVGVYIYGSIALGAFHAETSDVDFVTVISDPVNEAEKQQLVELHKKLSGSTLGKRMDGMYIPLADLGKYNDEMNEYVYCADGKANIGHWDINAVTWWTLKNQGITVIGKEAEDLSFQIRWDDVVNTMKYNVEQYWSGKAKQPYLFFIEEWVESAVVTMGRILYTLDHKTIVSKDRGLQYLLEHSSEEWGPLLKEVERIRQNPKEKRMLSRWRRADMTKRFLLHLIETCRGKWTIQ | not soluble |
| MGSDKIHHHHHHMFTMICPVCEKSVNDMQGLALHFRSGSIHGDGKHASWISAEQIEHGISDSDLSDVLIRIFRPEESLIRWARMEFIAKFYAHPHPFMEAMQKPTVPVLLGYVIEHRFFLKNWIRTLSMVIHSTTSDDAFEYEVENVATEYIGLNGKPSHLELLLRMGEALGMSRKRIMEYSPLPETSQAIEVWYGISNRYSWIDTMGAMHVLELVADRTLVDDGSPIHYFNPEILKGSDYPEAVKNFLMEGYEADVGHAGEALKIVQAATMDDLTTRSIMLRSMDAFYVYLNARMRRARMLEASWGE | not soluble |

Reference: the DeepSol protein solubility set
